Results reported in the RNAGym collection of RNA variant scans (doi:10.1073/pnas.2313332121).
This sample holds only a part of the variants without activity.

B1: TPR 5TU (parent)
chain: GGAUCUUCUCGAUCUAACAAAAAAGACAAAUCUGCCACAAAGCUUGAGAGCAUCUUCGGAUGCAGAGGCGGCAGCCUUCGGUGGCGCGAUAGCGCCAACGUUCUCAACUAUGACACGCAAAACGCGUGCUCCGUUGAAUGGAGUUUAUCAUG

Variants of: B1
Experiment: polymerase ribozyme fitness, log enrichment relative to wild type (log ratio); higher = more active; in vitro selection for triplet polymerase activity
Summary of the method: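 A single round of triplicate in vitro selection, including frozen incubation at −7 °C, was applied to PCR-built, transcribed mutant libraries of each subunit of a heterodimeric triplet polymerase ribozyme. Illumina sequencing of input and output libraries retained genotypes with ≥10 input reads and ≥1 read per output. Fitness is the base-2 logarithm of genotype enrichment divided by wild-type enrichment, from inverse-variance-weighted replicate averages.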

Variant	polymerase ribozyme fitness (log ratio)
C96U C103U	-1.25
C95U G141A	0.432
C96G C105G G143A	-3.02
C99U C125U	0.0952
C96G A119U	-2.52
U102G A121C	-2.85
U102G A121U	-2.32
C96U G117U A120U C149A	≤ -4.2
A98U G141U	1.39
U104G U135C G143C	-3.79
C95U C125U A142C	-3.48
C96A C116G G136C	-3.22
G94U G141C	-1.45
A97G A107G	-4.13
C96U A119C G141A	0.872
G94U G143U	-3.64
U101G A107U	-3.84
A97U C116U	-0.695
C95G C96U A120U A122C U139G	-1.86
C95A G140A	-2.71
G94C U145G	-0.944
U101C C132A	-2.05
C103G U145G	-1.87
U102C A120U G140C	-3.56

Variant	polymerase ribozyme fitness (log ratio)
C96G A122U A142U	-1.45
C95A C99A C123G	-1.33
U102G C105U C125U A150C	-4.12
C99G C118U U148A	≤ -4.2
G94U U104C G117U U134A	-2.96
C96U G100U	-3.13
G94U A147U	0.0631
G94C G126A	0.311
C96U C131U	0.576
C96U C131G	-2.66
G94U U101G A120U A142U	-2.08
C96G A122G U139G	0.0535
A97G C116U G133U	≤ -4.2
C96A C125U G143A	-3.57
C96U	-0.258
C96G	-0.496
C96A	-0.52
C99A C116U	-0.602
C99G A137C A142G	-3.71
C95U A142U U145G	-2.47
C96A U104A G124C	-1.19
U101G G117A G133U	-4.1
C96G U144C	-0.123
C96A C105U A122U	0.463

Variant	polymerase ribozyme fitness (log ratio)
G94U A142U	-1.73
U102A G128U	-4.1
C103A A120G C131U A138U	-3.71
G94C U134G U135C	≤ -4.2
G94U A97G U127A A150U	≤ -4.2
C96A G136A	-0.205
C103G U135A	-2.27
C96U C105A	-0.493
C96U C105U	0.67
C96U C105G	-2.46
U102C U148C	-3.19
C96U U101C A142C	-1.82
C96A U127A	-3.79
C95U C96G U135G U144G A147C	-4.2
C96G C99G C116A A147C	≤ -4.2
A97G C123U	0.215
C95A C108G	≤ -4.2
G94C U101A G152A	-2.72
C96U C116U G140C U144G	-4.04
C103G G117U	-0.61
A98G A121G	-1.63
G94C G126A C132A	-2.93
C103U A115G	-1.14
C99G G117C A122G	-1.51

Variant	polymerase ribozyme fitness (log ratio)
A98G U101C G141U	0.851
A97G C99G	-0.579
C96G C108U	-2.5
A97U U139C G140C U145G	-3.85
U102G U104C U148A A150U	≤ -4.2
A98U U101G C129U U139C	≤ -4.2
U101G A115U G117U A150C	≤ -4.2
C96G U102G	-3.26
U102C A150C	-4.08
A97U	-0.75
A97C	0.773
A97G	-0.12
G100C G136U U146G	≤ -4.2
U101A U109G C118U C125G A138G G141A	≤ -4.2
A97G A150C	-2.96
A97G A150G	-2.82
C96A G128U	-2.45
A97U G141C U146G	-2.08
C99G A121C U151A	≤ -4.2
G100U U144G	-3.5
C96G C108A C123G	-3.69
C103A A120C G124A U134A	-3.66
A97G U130G	-2.77
C96A A98U	-0.335

Variant	polymerase ribozyme fitness (log ratio)
C96G A98U U144G	-0.0548
C96U A142G	-1.18
C96U A142C	-1.15
C95U A107G	-4.16
C99U G136U	-2.25
C99U G136A	0.0423
C96A C132G	-3.72
C96A U139C	-3.61
C103A G117U	-0.489
C99U C149U	-1.17
C95U A142C	-1.54
C95U A142G	-1.66
C99G C129A	-3.81
C95U A98G C105U	0.768
C96U G143C	-3.12
C96U G143A	-0.236
C95U U101G C105U C125U A142U	≤ -4.2
C96U A119U G152C	-3.13
C95G A97C	-0.47
U101G A106C A113C A122G	≤ -4.2
G94C U104G	-1.24
C96A U144A	-0.177
C96U U151G	-4.05
G94U G128U U139A G141A	≤ -4.2

Variant	polymerase ribozyme fitness (log ratio)
C96A C125U U130C	-0.299
C99U C103A G128A G136U U148G	≤ -4.2
C96U U139A	-3.94
C96G G152U	-2.77
U104G G126A	0.207
U104G G126C	0.0565
G94C G117U	0.0157
A98U U148A	-3.03
C96A C103G	-2.53
C96U A121G	0.324
C95U C131G	-3.24
A98U A142U	-2.98
C103G A107G A142G	≤ -4.2
C96G G112C	-3.95
A98U A138G	-3.32
C96A G126A U139G U151C	≤ -4.2
C96U U104G C129G	-2.81
C103G A119C	-1.49
C96G A142C	-1.82
C99U A119C C125G U134G	-3.27
C96U A97U U134G A138C	≤ -4.2
A97C A98U U111G	-3.78
C96U A107C	-3.14
C96U A107U	-3.35

Variant	polymerase ribozyme fitness (log ratio)
C96U A138U	≤ -4.2
U101A A106C A147G	-3.14
U104C U135G	-3.31
C96A A120U G140U	-3.09
U101A G143C	-2.08
C95U G100U U104G C114U G141C A150C	≤ -4.2
A98G G128A	-3.02
G94U C114G C116U	≤ -4.2
A98G A120G	-0.401
A97G C131A	-2.32
A97G C131G	-3.21
C96G U102C A121G G141A A150G	-4.15
U102G C116G G133C	-3.6
C96G C103U	-0.445
C96G A150U	0.451
C96G A97G G143U	-3.14
C95U U145A	0.0594
C96A G112C	-3.31
C96G U109G G124C	-2.62
A98G C132G G136C	-4.12
U102G U148A	-3.81
U104G U109A G133C	-2.78
C95A A98G	0.372
